# Measurements taken from USRE50631 (VELOSBIO, dated 2025).
# B1: D10 (antibody, V domains shown)
# VH: QVQLKESGPGLVAPSQTLSITCTVSGFSLTSYGVHWVRQPPGKGLEWLGVIWAGGFTNYNSALKSRLSISKDNSKSQVLLKMTSLQTDDTAMYYCARRGSSYSMDYWGQGTSVIVSS
# VL: EIVLSQSPAITAASLGQKVTITCSASSNVSYIHWYQQRSGTSPRPWIYEISKLASGVPVRFSGSGSGTSYSLTISSMEAEDAAIYYCQQWNYPLITFGSGTKLEIQ
# notes: also called antibody D10
# B2: ADC-S (antibody, V domains shown)
# VH: B1 VH
# VL: B1 VL
# modifications: MAL-VC-PAB-MMAE bonded via cysteine residues of the antibody (positions not stated)
# notes: Antibody-drug conjugate of D10; also called D10-MAL-VC-PAB-MMAE
# B3: ADC-E (antibody, human IgG1, kappa, V domains shown)
# VH: QVQLQESGPGLVKPSQTLSLTCTVSGYAFTAYNIHWVRQAPGQGLEWMGSFDPYDGGSSYNQKFKDRLTISKDTSKNQVVLTMTNMDPVDTATYYCARGWYYFDYWGHGTLVTVSS
# VL: DIVMTQTPLSLPVTPGEPASISCRASKSISKYLAWYQQKPGQAPRLLIYSGSTLQSGIPPRFSGSGYGTDFTLTINNIESEDAAYYFCQQHDESPYTFGEGTKVEIKR
# modifications: SC-VC-PAB-MMAE bonded via lysine residues of the antibody (chain and positions not stated)
# B4: ADC-M (antibody, human IgG1, kappa, V domains shown)
# VH: B3 VH
# VL: B3 VL
# modifications: MAL-Phe-C4-VC-PAB-MMAE bonded via cysteine residues of the antibody (chain and positions not stated)
# notes: Antibody-drug conjugate of Ab1; also called Ab1-MAL-Phe-C4-VC-PAB-MMAE
# B5: ADC-B (antibody, human IgG1, kappa, V domains shown)
# VH: B3 VH
# VL: B3 VL
# modifications: SMCC-DM1 bonded via lysine residues of the antibody (chain and positions not stated); SMCC-DM1 bonded via lysine residues of the antibody (chain and positions not stated); DAR 3.0 to 3.20
# B6: ADC-Q (antibody, human IgG1, kappa, V domains shown)
# VH: B3 VH
# VL: B3 VL
# modifications: deglycosylated with PNGase F; azido-PEG3-amine put on glutamine residues by microbial transglutaminase, then DBCO-(PEG2-VC-PAB-MMAE)2 via a triazole (chain and positions not stated); DAR 4.4
# notes: also called Ab1-DBCO-(PEG2-VC-PAB-MMAE)2
# B7: ADC-R (antibody, human IgG1, kappa, V domains shown)
# VH: B3 VH
# VL: B3 VL
# modifications: deglycosylated with PNGase F; azido-PEG3-amine put on glutamine residues by microbial transglutaminase, then DBCO-PEG4-VC-PAB-DMEA-PNU-159682 via a triazole (chain and positions not stated); DAR 2.1
# notes: also called Ab1-DBCO-PEG4-VC-PAB-DMEA-PNU-159682
# B8: ADC-C (antibody, human IgG1, kappa, V domains shown)
# VH: B3 VH
# VL: B3 VL
# modifications: MAL-VC-PAB-DM1 bonded via cysteine residues of the antibody (chain and positions not stated)
# B9: ADC-L (antibody, human IgG1, kappa, V domains shown)
# VH: B3 VH
# VL: B3 VL
# modifications: MAL-DPR-VC-PAB-MMAE bonded via cysteine residues of the antibody (chain and positions not stated)
# notes: Antibody-drug conjugate of Ab1; also called Ab1-MAL-DPR-VC-PAB-MMAE
# B10: Ab1 (antibody, human IgG1, kappa, V domains shown)
# VH: B3 VH
# VL: B3 VL
# notes: also called unconjugated Ab1; parental antibody Ab1
# B11: ADC-F (antibody, human IgG1, kappa, V domains shown)
# VH: B3 VH
# VL: B3 VL
# modifications: SC-VC-PAB-DM1 bonded via lysine residues of the antibody (chain and positions not stated)
# B12: ADC-P (antibody, human IgG1, kappa, V domains shown)
# VH: B3 VH
# VL: B3 VL
# modifications: MAL-Phe-C4-VC-PAB-DMEA-PNU-159682 bonded via cysteine residues of the antibody (chain and positions not stated)
# notes: Antibody-drug conjugate of Ab1; also called Ab1-MAL-Phe-C4-VC-PAB-DMEA-PNU-159682
# B13: ADC-N (antibody, human IgG1, kappa, V domains shown)
# VH: B3 VH
# VL: B3 VL
# modifications: MAL-PEG4-VC-PAB-DMEA-PNU-159682 bonded via cysteine residues of the antibody (chain and positions not stated)
# notes: Antibody-drug conjugate of Ab1; also called Ab1-MAL-PEG4-VC-PAB-DMEA-PNU-159682
# B14: ADC-O (antibody, human IgG1, kappa, V domains shown)
# VH: B3 VH
# VL: B3 VL
# modifications: MAL-C2-Gly3-EDA-PNU-159682 bonded via cysteine residues of the antibody (chain and positions not stated)
# notes: Antibody-drug conjugate of Ab1; also called Ab1-MAL-C2-Gly3-EDA-PNU-159682
# B15: ADC-A (antibody, human IgG1, kappa, V domains shown)
# VH: B3 VH
# VL: B3 VL
# modifications: MC-VC-PAB-MMAE bonded via cysteine residues of the antibody (chain and positions not stated); MC-VC-PAB-MMAE bonded via cysteine residues of the antibody (chain and positions not stated); DAR 3.89 to 5.09
# notes: Antibody-drug conjugate of Ab1; also called Ab1-MC-VC-PAB-MMAE
# B16: 4A5 (antibody, V domains shown)
# VH: EVKLVESGGGLVKPGGSLKLSCAASGFTFSSYAMSWVRQIPEKRLEWVASISRGGTTYYPDSVKGRFTISRDNVRNILYLQMSSLRSEDTAMYYCGRYDYDGYYAMDYWGQGTSVTVSS
# VL: DIKMTQSPSSMYASLGERVTITCKASPDINSYLSWFQQKPGKSPKTLIYRANRLVDGVPSRFSGGGSGQDYSLTINSLEYEDMGIYYCLQYDEFPYTFGGGTKLEMK
# notes: also called anti-ROR1 antibody 4A5
# B17: ADC-T (antibody, V domains shown)
# VH: B16 VH
# VL: B16 VL
# modifications: MAL-VC-PAB-MMAE bonded via cysteine residues of the antibody (positions not stated)
# notes: Antibody-drug conjugate of 4A5; also called 4A5-MAL-VC-PAB-MMAE
# Legend:
# [1] = target: T1, human receptor tyrosine kinase like orphan receptor 1 (ROR1) (human, UniProt Q01973 30-937); assay: flow cytometry on Jeko-1 cells (FIG. 3B)
# T1 construct: whole, on cells; Target in all assays is endogenous ROR1 on human tumor cell lines; the cell line is named under assay; also called cell surface ROR1
# T1 sequence (Q01973 30-937): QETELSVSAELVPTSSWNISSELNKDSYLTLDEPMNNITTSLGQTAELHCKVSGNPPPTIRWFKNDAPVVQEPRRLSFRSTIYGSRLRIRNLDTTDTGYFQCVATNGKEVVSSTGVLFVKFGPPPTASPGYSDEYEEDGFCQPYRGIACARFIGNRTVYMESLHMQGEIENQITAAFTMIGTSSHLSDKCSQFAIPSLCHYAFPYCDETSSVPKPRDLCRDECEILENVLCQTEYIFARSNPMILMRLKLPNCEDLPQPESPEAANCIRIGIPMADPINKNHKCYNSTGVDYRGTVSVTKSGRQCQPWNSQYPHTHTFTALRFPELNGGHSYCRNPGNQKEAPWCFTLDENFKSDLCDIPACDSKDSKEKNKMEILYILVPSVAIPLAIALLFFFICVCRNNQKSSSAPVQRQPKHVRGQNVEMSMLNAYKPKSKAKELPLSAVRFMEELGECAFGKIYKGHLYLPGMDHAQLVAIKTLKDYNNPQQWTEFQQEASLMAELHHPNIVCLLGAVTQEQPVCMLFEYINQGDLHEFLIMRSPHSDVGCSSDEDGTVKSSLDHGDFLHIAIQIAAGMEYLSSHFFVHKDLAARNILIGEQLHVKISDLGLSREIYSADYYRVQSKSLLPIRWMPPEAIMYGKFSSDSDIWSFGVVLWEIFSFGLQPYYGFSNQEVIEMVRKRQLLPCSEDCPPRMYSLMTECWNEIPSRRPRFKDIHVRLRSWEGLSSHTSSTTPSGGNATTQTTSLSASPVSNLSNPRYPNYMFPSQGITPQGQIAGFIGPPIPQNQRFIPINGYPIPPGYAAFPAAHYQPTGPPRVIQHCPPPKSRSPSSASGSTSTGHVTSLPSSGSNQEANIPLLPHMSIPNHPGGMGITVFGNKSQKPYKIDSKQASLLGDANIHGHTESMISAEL
# [2] = target: T1, human receptor tyrosine kinase like …; assay: cell-based or functional assay
# [3] = target: T1, human receptor tyrosine kinase like …; assay: binding to Jeko cells; column 'ADC-M Binding KD (nM)', method not described
# [4] = target: T1, human receptor tyrosine kinase like …; assay: binding to Jeko cells; column 'ADC-Q Binding KD (nM)', method not described
# [5] = target: T1, human receptor tyrosine kinase like …; assay: binding to Jeko cells; column 'ADC-R Binding KD (nM)', method not described
# [6] = target: T1, human receptor tyrosine kinase like …; assay: binding to Jeko cells; column 'ADC-L Binding KD (nM)', method not described
# [7] = target: T1, human receptor tyrosine kinase like …; assay: flow cytometry on Jeko-1 cells (FIG. 3A)
# [8] = target: T1, human receptor tyrosine kinase like …; assay: flow cytometry on Jeko-1 cells, PE anti-human IgG secondary, % maximal binding
# [9] = target: T1, human receptor tyrosine kinase like …; assay: flow cytometry on MDA-MB-231 cells, PE anti-human IgG secondary, % maximal binding
# [10] = target: T1, human receptor tyrosine kinase like …; assay: binding to Jeko cells; column 'ADC-P Binding KD (nM)', method not described
# [11] = target: T1, human receptor tyrosine kinase like …; assay: binding to Jeko cells; column 'ADC-N Binding KD (nM)', method not described
# [12] = target: T1, human receptor tyrosine kinase like …; assay: binding to Jeko cells; column 'ADC-O Binding KD (nM)', method not described
# [13] = target: T1, human receptor tyrosine kinase like …; assay: flow cytometry on Jeko-1 cells
# [14] = target: T1, human receptor tyrosine kinase like …; assay: flow cytometry on MDA-MB-231 cells
# [15] = target: T1, human receptor tyrosine kinase like …; assay: binding to Jeko-1 cells; column 'ADC-A Binding KD (nM)', method not described
# [16] = target: T1, human receptor tyrosine kinase like …; assay: binding to MDA-MB-231 cells; column 'ADC-A Binding KD (nM)', method not described
binder,measurement,setting,value
B1,EC50,[1],0.25 µg/mL
B2,EC50,[1],0.15 µg/mL
B3,"IC50, cell viability (CellTiter-Glo, 72 h), Bt549 cells",[2],74.4 nM
same,"IC50, cell viability (CellTiter-Glo, 72 h), DOHH2 cells",[2],89.6 nM
same,"IC50, cell viability (CellTiter-Glo, 72 h), HBL-1 cells",[2],147 nM
same,"IC50, cell viability (CellTiter-Glo, 72 h), JHOM1 cells",[2],32.9 nM
same,"IC50, cell viability (CellTiter-Glo, 72 h), MDA-MB-468 cells",[2],80.1 nM
same,"IC50, cell viability (CellTiter-Glo, 72 h), SKOvr3 cells",[2],201 nM
same,"IC50, cell viability (CellTiter-Glo, 72 h), TMD-8 cells",[2],94.3 nM
same,"IC50, cell viability (CellTiter-Glo, 72 h), TOV112D cells",[2],57.8 nM
B4,Kd,[3],0.12 nM
B5,"IC50, cell viability (CellTiter-Glo, 72 h), A2008 cells",[2],49 nM
same,"IC50, cell viability (CellTiter-Glo, 72 h), Bt549 cells",[2],20.2 nM
same,"IC50, cell viability (CellTiter-Glo, 72 h), DOHH2 cells",[2],78.3 nM
same,"IC50, cell viability (CellTiter-Glo, 72 h), HBL-1 cells",[2],70.1 nM
same,"IC50, cell viability (CellTiter-Glo, 72 h), HCC1187 cells",[2],6.2 nM
same,"IC50, cell viability (CellTiter-Glo, 72 h), JHOM1 cells",[2],24.3 nM
same,"IC50, cell viability (CellTiter-Glo, 72 h), MDA-MB-468 cells",[2],18.8 nM
same,"IC50, cell viability (CellTiter-Glo, 72 h), SKOvr3 cells",[2],78.7 nM
same,"IC50, cell viability (CellTiter-Glo, 72 h), TMD-8 cells",[2],50 nM
same,"IC50, cell viability (CellTiter-Glo, 72 h), TOV112D cells",[2],34.2 nM
B6,Kd,[4],0.23 nM
B7,Kd,[5],0.25 nM
B8,"IC50, cell viability (CellTiter-Glo, 72 h), A2008 cells",[2],> 1000 nM
same,"IC50, cell viability (CellTiter-Glo, 72 h), Bt549 cells",[2],> 1000 nM
same,"IC50, cell viability (CellTiter-Glo, 72 h), DOHH2 cells",[2],> 1000 nM
same,"IC50, cell viability (CellTiter-Glo, 72 h), HBL-1 cells",[2],> 1000 nM
same,"IC50, cell viability (CellTiter-Glo, 72 h), HCC1187 cells",[2],> 1000 nM
same,"IC50, cell viability (CellTiter-Glo, 72 h), JHOM1 cells",[2],> 1000 nM
same,"IC50, cell viability (CellTiter-Glo, 72 h), MDA-MB-468 cells",[2],> 1000 nM
same,"IC50, cell viability (CellTiter-Glo, 72 h), SKOvr3 cells",[2],> 1000 nM
same,"IC50, cell viability (CellTiter-Glo, 72 h), TMD-8 cells",[2],> 1000 nM
same,"IC50, cell viability (CellTiter-Glo, 72 h), TOV112D cells",[2],> 1000 nM
B9,Kd,[6],0.15 nM
B10,EC50,[7],0.0164 µg/mL
same,EC50,[1],0.0165 µg/mL
same,EC50,[8],0.0136 µg/mL
same,EC50,[9],0.0328 µg/mL
B11,"IC50, cell viability (CellTiter-Glo, 72 h), A2008 cells",[2],> 1000 nM
same,"IC50, cell viability (CellTiter-Glo, 72 h), Bt549 cells",[2],> 1000 nM
same,"IC50, cell viability (CellTiter-Glo, 72 h), DOHH2 cells",[2],> 1000 nM
same,"IC50, cell viability (CellTiter-Glo, 72 h), HBL-1 cells",[2],> 1000 nM
same,"IC50, cell viability (CellTiter-Glo, 72 h), HCC1187 cells",[2],> 1000 nM
same,"IC50, cell viability (CellTiter-Glo, 72 h), JHOM1 cells",[2],> 1000 nM
same,"IC50, cell viability (CellTiter-Glo, 72 h), MDA-MB-468 cells",[2],> 1000 nM
same,"IC50, cell viability (CellTiter-Glo, 72 h), SKOvr3 cells",[2],> 1000 nM
same,"IC50, cell viability (CellTiter-Glo, 72 h), TMD-8 cells",[2],> 1000 nM
same,"IC50, cell viability (CellTiter-Glo, 72 h), TOV112D cells",[2],> 1000 nM
B12,Kd,[10],0.11 nM
B13,Kd,[11],0.13 nM
B14,Kd,[12],0.12 nM
B15,"IC50, cell viability (CellTiter-Glo, 72 h), A2008 cells",[2],125 nM
same,"IC50, cell viability (CellTiter-Glo, 72 h), Bt549 cells",[2],13.5 nM
same,"IC50, cell viability (CellTiter-Glo, 72 h), DOHH2 cells",[2],129 nM
same,"IC50, cell viability (CellTiter-Glo, 72 h), HBL-1 cells",[2],118 nM
same,"IC50, cell viability (CellTiter-Glo, 72 h), HCC1187 cells",[2],6.8 nM
same,"IC50, cell viability (CellTiter-Glo, 72 h), JHOM1 cells",[2],15.6 nM
same,"IC50, cell viability (CellTiter-Glo, 72 h), MDA-MB-468 cells",[2],23.5 nM
same,"IC50, cell viability (CellTiter-Glo, 72 h), SKOvr3 cells",[2],62.6 nM
same,"IC50, cell viability (CellTiter-Glo, 72 h), TMD-8 cells",[2],122 nM
same,"IC50, cell viability (CellTiter-Glo, 72 h), TOV112D cells",[2],62.4 nM
same,EC50,[13],0.017 µg/mL
same,EC50,[14],0.0485 µg/mL
same,EC50,[7],0.0216 µg/mL
same,EC50,[1],0.0221 µg/mL
same,Kd,[15],0.1 nM
same,Kd,[16],0.32 nM
B16,EC50,[7],0.121 µg/mL
B17,EC50,[7],0.193 µg/mL
